Test results from US20260242495A1 (PROMETHEUS BIOSCIENCES, published 2026).
Several values for one entry are separate records, joined by “and”; a condition that tells them apart may be missing. Equal values may be shown once.

Target: T1, cynomolgus monkey TL1A (cynomolgus monkey, UniProt G7PRK8 72-251)
T1 sequence: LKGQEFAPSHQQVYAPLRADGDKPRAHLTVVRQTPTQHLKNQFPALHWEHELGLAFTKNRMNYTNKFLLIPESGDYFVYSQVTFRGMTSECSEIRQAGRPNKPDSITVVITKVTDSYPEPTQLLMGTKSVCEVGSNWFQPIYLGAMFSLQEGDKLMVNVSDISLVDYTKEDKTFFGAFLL
Assay: cell-based or functional assay

B1: anti-TL1A antibody A219 (antibody, V domains shown)
VH: QVQLVQSGAEVKKPGASVKVSCKASGFDIQDTYMHWVKQRPGQGLEWMGRIDPASGHTKYDPKFQVRVTITRDTSTSTVYLELSSLRSEDTAVYYCARSGGLPDVWGQGTTVTVSS
VL: EIVLTQSPGTLSLSPGERATLSCRASSSVSYMYWYQQKPGQAPRPLIYATSNLASGIPDRFSGSGSGTDFTLTISRLEPEDFAVYYCQQWEGNPRTFGGGTKLEIK
- IC50 of inhibition of IFN-γ release in monkey whole blood stimulated with immune complex, IL-12 and IL-18: 1.54 nM and 289 ng/mL
